Test results as given in patent publication US20130123472A1 (GlaxoSmithKline, published 2013).
Where no end group is shown, it is not given here.

Experiments:
[1] = biological target: T1, peptide MA3#1 conjugated to KLH (human, also: conjugated to KLH); test: ELISA, clone culture supernatant on coated antigen, GAM IgG-HRP, OD 405 nm
T1 construct: MAGE-A3 residues 137-147 with added residue(s) at the N-terminus for linkage to the carrier; also called MAGE-A3 peptide #1; peptide #1
T1 peptide: CGSVVGNWQYFF
Experimental: (§1) Wells of a Nunc MAXISORP™ 96-well were coated with antigen. The antigen was diluted in Tris-buffered saline (TBS) at 0.1 μg/50 μl for purified recombinant MAGE proteins, or at 0.5 μg/50 μl for peptides conjugated to KLH, and distributed at 50 μl per well and dried overnight at 37° C. The wells were washed several times in TBS and 50 μl of TBS-1% casein was added to each well. Wells were incubated for 1 hour at 37° C. and washed again several times in TBS.
(§2) In total, 75 clones from Example 5 that grew easily after transfer into 24-well plates were tested two days later in ELISA for reactivity with the following antigens: recombinant MAGE-A3, recombinant MAGE-A2; recombinant MAGE-A12; peptide MA3 #1 conjugated to KLH; peptide MA3 #2 conjugated to KLH; and peptide MA3#3 conjugated to KLH.
(§3) For each clone, 50 μl of culture medium supernatant was transferred into a well of a 96-well plate containing 0.1 μg/well of one of the recombinant MAGE proteins or 0.5 μg/well of one of the peptides conjugated to KLH. As positive control, 50 μl of 57B hybridoma supernatant was tested on each of the antigens.

[2] = biological target: T2, MAGE-A2 recombinant protein (LVL313) (human, UniProt P43356 1-314); test: as above
T2 construct: Purified full-length recombinant protein in ELISA and Western blot; the same id is used for MAGE-A2 in lysates of transfected HEK 293 cells; also called recMA2
Experimental: as §1, §2, §3

[3] = biological target: T3, peptide MA3#3 conjugated to KLH (human, conjugated to keyhole limpet haemocyanin (KLH)); test: as above
T3 construct: MAGE-A3 residues 73-90 with two added residues at the N-terminus for linkage to the carrier; also called MAGE-A3 peptide #3; peptide #3
T3 peptide: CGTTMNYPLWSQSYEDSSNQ
Experimental: as §1, §2, §3

[4] = biological target: T4, MAGE-A12 recombinant protein (LVL314) (human, UniProt P43365 1-314); test: as above
T4 construct: Purified full-length recombinant protein in ELISA and Western blot; the same id is used for MAGE-A12 in lysates of transfected HEK 293 cells; also called recMA12
Experimental: as §1, §2, §3

[5] = biological target: T5, peptide MA3#2 conjugated to KLH (human, also: conjugated to KLH); test: ELISA, hybridoma supernatant on 0.5 µg/well peptide-KLH
T5 construct: MAGE-A3 residues 163-180 with an added N-terminal residue; by an error of synthesis it lacks the Ile of position 177; also called MAGE-A3 peptide #2; peptide #2
T5 peptide: CGIELMEVDPIGHLYFAT

MAGE-A10 = biological target: T6, MAGE-A10 (human, UniProt P43363 1-369); test: Western blot, lysates of transiently transfected HEK 293 cells
T6 construct: In lysates of transiently transfected HEK 293 cells; construct not described
Experimental: (§4) The specificity of mAbs 1B1, 16G7 and 23D2 were tested in Western blot analyses on HEK 293 cells transiently transfected with plasmids encoding MAGE-A1, A2, A3, A4, A6, A8, A9, A10, All and A12. Non-transfected cells were used as a control. Between 25 and 85 μg of lysates of transfected or non-transfected cells were electrophoresed on SDS-PAGE and transferred onto nitrocellulose. Immunodetection was performed by incubation of the blots with each of mAbs 1B1, 16G7 and 23D2. Immunodetection was additionally performed using a mixture of mAbs that together recognized all of the MAGE-A antigens expressed by the transfectants (see Table 6 for mAbs in this mixture).
(§5) Method: mini-gels were prepared with 10% acrylamide in the running gel and 4.5% acrylamide in the stacking gel. Samples were prepared in 40 μl of loading buffer (reducing conditions), the gel was loaded and migrated at 100V in the stacking gel and 200 V in the running gel. Proteins were transferred onto nitrocellulose at 100 mA during one hour at 4° C., and the membrane incubated in TBS-5% skimmed milk, and incubated with antibody diluted in TBS-1% skim milk for one hour at room temperature.

MAGE-A6 = biological target: T7, MAGE-A6 (human, UniProt P43360 1-314); test: as above
T7 construct: In lysates of transiently transfected HEK 293 cells (Western blot); also endogenous MAGE-A6 in K562 lysate; Construct not described
Experimental: as §4, §5

MAGE-A8 = biological target: T8, MAGE-A8 (human, UniProt P43361 1-318); test: as above
T8 construct: In lysates of transiently transfected HEK 293 cells; construct not described
T8 sequence: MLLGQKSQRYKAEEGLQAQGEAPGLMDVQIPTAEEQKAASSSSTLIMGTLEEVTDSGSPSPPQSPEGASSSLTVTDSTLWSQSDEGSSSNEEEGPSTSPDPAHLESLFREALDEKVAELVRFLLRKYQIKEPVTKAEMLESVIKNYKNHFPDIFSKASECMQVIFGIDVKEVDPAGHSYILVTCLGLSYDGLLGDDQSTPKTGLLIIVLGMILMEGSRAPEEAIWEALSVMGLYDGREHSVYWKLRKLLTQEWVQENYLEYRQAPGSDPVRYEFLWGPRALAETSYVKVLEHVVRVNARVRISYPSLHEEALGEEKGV
Experimental: as §4, §5

MAGE-A11 = biological target: T9, MAGE-A11 (human, UniProt P43364 1-429); test: as above
T9 construct: In lysates of transiently transfected HEK 293 cells; construct not described
T9 sequence: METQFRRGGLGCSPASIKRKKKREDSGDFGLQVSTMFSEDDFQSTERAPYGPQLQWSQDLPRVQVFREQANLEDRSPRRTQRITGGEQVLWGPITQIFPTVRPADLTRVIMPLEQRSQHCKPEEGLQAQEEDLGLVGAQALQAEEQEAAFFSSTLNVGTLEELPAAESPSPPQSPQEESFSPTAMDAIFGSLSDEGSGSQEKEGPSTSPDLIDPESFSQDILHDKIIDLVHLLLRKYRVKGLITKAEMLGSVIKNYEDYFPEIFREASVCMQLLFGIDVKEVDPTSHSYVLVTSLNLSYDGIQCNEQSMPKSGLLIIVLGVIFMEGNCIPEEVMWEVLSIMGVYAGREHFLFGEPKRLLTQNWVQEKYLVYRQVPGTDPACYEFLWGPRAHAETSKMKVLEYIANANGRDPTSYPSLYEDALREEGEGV
Experimental: as §4, §5

MAGE-A1 = biological target: T10, MAGE-A1 (human, UniProt P43355 1-309); test: as above
T10 construct: In lysates of transiently transfected HEK 293 cells; construct not described
T10 sequence: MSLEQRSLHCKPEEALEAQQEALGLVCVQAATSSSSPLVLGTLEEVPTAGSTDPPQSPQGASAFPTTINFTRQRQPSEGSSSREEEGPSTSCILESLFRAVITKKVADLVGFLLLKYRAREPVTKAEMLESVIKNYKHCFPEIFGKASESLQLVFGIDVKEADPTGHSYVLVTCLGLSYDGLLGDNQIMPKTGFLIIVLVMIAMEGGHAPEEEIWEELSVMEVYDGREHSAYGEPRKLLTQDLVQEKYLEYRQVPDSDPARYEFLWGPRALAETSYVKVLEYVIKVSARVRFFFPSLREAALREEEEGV
Experimental: as §4, §5

MAGE-A4 = biological target: T11, MAGE-A4 (human, UniProt P43358 1-317); test: as above
T11 construct: In lysates of transiently transfected HEK 293 cells; construct not described
T11 sequence: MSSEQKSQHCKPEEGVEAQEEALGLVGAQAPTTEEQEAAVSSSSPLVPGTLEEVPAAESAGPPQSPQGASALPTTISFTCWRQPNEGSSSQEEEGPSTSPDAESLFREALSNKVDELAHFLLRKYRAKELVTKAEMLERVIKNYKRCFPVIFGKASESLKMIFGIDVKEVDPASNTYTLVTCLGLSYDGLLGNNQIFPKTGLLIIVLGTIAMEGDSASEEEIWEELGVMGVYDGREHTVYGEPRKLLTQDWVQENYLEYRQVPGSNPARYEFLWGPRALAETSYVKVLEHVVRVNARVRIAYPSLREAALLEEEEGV
Experimental: as §4, §5

MAGE-A9 = biological target: T12, MAGE-A9 (human, UniProt P43362 1-315); test: as above
T12 construct: constructs not described
T12 sequence: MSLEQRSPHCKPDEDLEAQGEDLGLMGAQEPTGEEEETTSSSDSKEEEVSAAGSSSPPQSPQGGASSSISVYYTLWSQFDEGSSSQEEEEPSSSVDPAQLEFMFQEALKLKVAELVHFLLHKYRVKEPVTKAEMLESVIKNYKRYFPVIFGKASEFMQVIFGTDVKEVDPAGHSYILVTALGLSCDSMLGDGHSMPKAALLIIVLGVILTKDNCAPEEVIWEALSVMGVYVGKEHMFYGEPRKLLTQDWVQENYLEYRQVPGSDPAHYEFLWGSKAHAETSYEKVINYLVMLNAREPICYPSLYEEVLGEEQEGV
Experimental: as §4, §5

[6] = biological target: T5, peptide MA3#2 conjugated to KLH; test: ELISA, clone culture supernatant on coated antigen, GAM IgG-HRP, OD 405 nm
Experimental: as §1, §2, §3

[7] = biological target: T13, full-length recombinant MAGE-A3 protein (human, UniProt P43357 1-314); test: ELISA, biotinylated mAb 23D2 on 0.1 µg/well recombinant MAGE-A3, OD 405 nm
T13 construct: Full-length recombinant protein (made in baculovirus or E. coli, GSK); Also used here for endogenous MAGE-A3 in GERL cell lysate and for summary statements on MAGE-A3; also called recMA3; MA3
Experimental: An ELISA against MAGE-A3 was then performed using dilutions of biotinylated mAb 23D2 ([…], 0.1, 0.15, 0.2, 0.25 and 0.3 μg/50 μl) to determine useful conditions of use of the biotinylated mAb 23D2.

T2 sequence (P43356 whole entry): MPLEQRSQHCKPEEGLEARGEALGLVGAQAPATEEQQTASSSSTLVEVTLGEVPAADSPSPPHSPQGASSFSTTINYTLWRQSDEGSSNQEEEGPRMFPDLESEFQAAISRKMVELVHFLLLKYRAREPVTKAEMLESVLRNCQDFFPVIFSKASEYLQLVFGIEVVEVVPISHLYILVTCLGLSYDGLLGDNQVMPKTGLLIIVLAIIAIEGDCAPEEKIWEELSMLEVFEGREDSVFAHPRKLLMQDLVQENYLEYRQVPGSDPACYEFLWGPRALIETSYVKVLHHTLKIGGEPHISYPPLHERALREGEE
T4 sequence (P43365 whole entry): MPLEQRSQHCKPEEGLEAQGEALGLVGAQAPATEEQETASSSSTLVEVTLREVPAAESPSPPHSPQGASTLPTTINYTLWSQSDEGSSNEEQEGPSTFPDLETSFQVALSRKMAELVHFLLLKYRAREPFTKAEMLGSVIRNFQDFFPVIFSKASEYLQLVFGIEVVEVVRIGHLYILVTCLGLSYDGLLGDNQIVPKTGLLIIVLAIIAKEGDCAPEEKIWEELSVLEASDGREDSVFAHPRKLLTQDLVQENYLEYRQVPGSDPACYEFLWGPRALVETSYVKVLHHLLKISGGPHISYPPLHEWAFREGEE
T6 sequence (P43363 whole entry R166K/V234I): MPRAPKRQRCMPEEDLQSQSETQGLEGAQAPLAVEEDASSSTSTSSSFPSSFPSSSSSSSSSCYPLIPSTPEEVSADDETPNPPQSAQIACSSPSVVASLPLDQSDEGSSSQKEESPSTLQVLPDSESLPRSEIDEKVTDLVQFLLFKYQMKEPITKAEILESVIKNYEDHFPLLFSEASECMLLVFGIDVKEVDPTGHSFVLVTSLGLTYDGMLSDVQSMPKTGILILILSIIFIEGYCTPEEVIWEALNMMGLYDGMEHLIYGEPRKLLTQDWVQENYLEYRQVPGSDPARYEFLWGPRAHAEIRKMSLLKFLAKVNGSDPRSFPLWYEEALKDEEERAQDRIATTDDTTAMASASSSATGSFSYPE
T7 sequence (P43360 whole entry Y283N): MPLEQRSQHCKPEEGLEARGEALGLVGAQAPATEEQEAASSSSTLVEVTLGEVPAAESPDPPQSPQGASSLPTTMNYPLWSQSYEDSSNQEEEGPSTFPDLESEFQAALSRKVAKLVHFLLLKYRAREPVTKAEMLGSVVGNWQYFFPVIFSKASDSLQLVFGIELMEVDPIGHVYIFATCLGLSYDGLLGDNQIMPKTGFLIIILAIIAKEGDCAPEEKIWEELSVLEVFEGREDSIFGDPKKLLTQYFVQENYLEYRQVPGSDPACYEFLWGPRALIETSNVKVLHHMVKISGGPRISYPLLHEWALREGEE
T13 sequence (P43357 whole entry): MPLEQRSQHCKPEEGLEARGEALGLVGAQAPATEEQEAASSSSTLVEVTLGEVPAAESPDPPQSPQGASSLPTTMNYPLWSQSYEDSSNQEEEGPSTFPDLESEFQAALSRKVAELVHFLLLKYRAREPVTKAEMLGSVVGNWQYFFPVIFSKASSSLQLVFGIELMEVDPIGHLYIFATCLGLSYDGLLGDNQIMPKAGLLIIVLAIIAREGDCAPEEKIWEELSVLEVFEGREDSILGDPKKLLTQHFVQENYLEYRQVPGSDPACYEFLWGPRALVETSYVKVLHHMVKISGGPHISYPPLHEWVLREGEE

B1: mAb 1B1 (antibody, IgG1, V domains shown)
VH: DVQLQESGPGLVKPSQSLSLTCTVTGYSITSDYVWNWIRQFPGNKLEWMGYIGHSGRTSYNPSLKSRISITRDTSKNQFFLQLNSVTSEDTATYYCARGGNNGFAYWGQGTLVTVSA
VL: DIVMTQSPSSLTVTAGEKVTMSCKSSQSLLNSGNQKNYLTWYQQKPGQPPKLLIYWTSTRDSGVPDRFTGSGSGTDFTLTISSVQAEDLAVYYCQNDYSYPPTFGGGTKLEIKR
notes: Tested as hybridoma supernatant; also called clone 1B1; hybridoma 1B1
binding result [1]: no binding | binding result [2]: no binding | binding result [3]: binds | binding result [4]: no binding | binding result [5]: no binding | binding result (MAGE-A10): no binding (tested: Between 25 and 85 µg of lysates) | binding result (MAGE-A6): binds | binding result (MAGE-A8): no binding (tested: Between 25 and 85 µg of lysates) | binding result (MAGE-A11): no binding (tested: Between 25 and 85 µg of lysates) | binding result (MAGE-A1): no binding (tested: Between 25 and 85 µg of lysates) | binding result (MAGE-A4): no binding (tested: Between 25 and 85 µg of lysates) | binding result (MAGE-A9): no binding (tested: Between 25 and 85 µg of lysates)

B2: mAb 16G7 (antibody, IgG1, V domains shown)
VH: EVMVVESGGGLVKPGGSLKLSCAASGFTFRTNAMSWVRQTPEKRLEWVATITSGGGSTYYPVSVKGRFTISRDNAKNTLYLQMSSLRSEDTAIYYCVRQDYFDYWGQGTFVIVSS
VL: QAVVTQESALTTSPGETVTLTCRSSTGAVTSTNYANWVQEKPDHLFTGLIGGTNNRAPGVPARFSGSLIGDKAALTITGAQTEDEAIYFCALWYSNHWVFGGGTKLTVL
notes: also called clone 16G7; hybridoma 16G7
binding result [1]: no binding | binding result [2]: no binding | binding result [3]: binds | binding result [6]: no binding | binding result [4]: no binding | binding result (MAGE-A10): no binding (tested: Between 25 and 85 µg of lysates) | binding result (MAGE-A6): binds | binding result (MAGE-A8): no binding (tested: Between 25 and 85 µg of lysates) | binding result (MAGE-A11): no binding (tested: Between 25 and 85 µg of lysates) | binding result (MAGE-A1): no binding (tested: Between 25 and 85 µg of lysates) | binding result (MAGE-A4): no binding (tested: Between 25 and 85 µg of lysates) | binding result (MAGE-A9): no binding (tested: Between 25 and 85 µg of lysates)

B3: mAb 23D2 (antibody, IgG2a, V domains shown)
VH: DVKLVESGGGLVKPGGSLKVSCVASGFTFSSYTMSWVRQTPEKRLEWVATITSGGGSSYYPDSVKGRFTISRDNAKNTLYLQITSLKSEDTAMYYCTSGGGVLLRLPLFAYWGQGTTLTVSS
VL: QAVVTQESALTTSPGETVTLTCRSSTGAVTASNYANWVQEKPDHSFTGLIGGINNRAPGVPARFSGSLIGDKAALTITGAQTEDEAIYFCALWYNNHWVFGGGTKLTVL
modifications: In the FIG. 8 ELISA and the FIG. 9 competition assay the antibody was biotinylated; the sites are not stated and the letters do not carry them.
notes: also called clone 23D2; hybridoma 23D2
binding result [1]: no binding | binding result [2]: no binding | binding result [3]: binds | binding result [6]: no binding | binding result [4]: no binding | binding result (MAGE-A10): no binding (tested: Between 25 and 85 µg of lysates) | binding result (MAGE-A6): binds | binding result (MAGE-A8): no binding (tested: Between 25 and 85 µg of lysates) | binding result (MAGE-A11): no binding (tested: Between 25 and 85 µg of lysates) | binding result (MAGE-A1): no binding (tested: Between 25 and 85 µg of lysates) | binding result (MAGE-A4): no binding (tested: Between 25 and 85 µg of lysates) | binding result (MAGE-A9): no binding (tested: Between 25 and 85 µg of lysates) | EC50 (read off the curve) [7]: ~0.006 µg/50 µl
